# Key:
# [1] = molecular target: Growth hormone secretagogue receptor (Homo sapiens) (UniProt Q92847); settings: cited from earlier work
# [2] = molecular target: T1, ghrelin (Homo sapiens, UniProt Q9UBU3, octanoylated ghrelin); assay: fluorescence displacement of atto520-ghrelin
# T1 chain: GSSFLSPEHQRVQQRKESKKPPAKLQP
# [3] = molecular target: T1, ghrelin; assay: fluorescence displacement of atto520-ghrelin (Goldstein-Barrett corrected)
Molecule,Kd [1] [nM],IC50 [2] [nM],Ki [3] [nM]
Ghrelin (from UniProt Q9UBU3),0.15,,
GHS receptor (GHSR1a) (protein) MWNATPSEEPGFNLTLADLDWDASPGNDSLGDELLQLFPAPLLAGVTATCVALFVVGIAGNLLTMLVVSRFRELRTTTNLYLSSMAFSDLLIFLCMPLDLVRLWQYRPWNFGDLLCKLFQFVSESCTYATVLTITALSVERYFAICFPLRAKVVVTKGRVKLVIFVIWAVAFCSAGPIFVLVGVEHENGTDPWDTNECRPTEFAVRSGLLTVMVWVSSIFFFLPVFCLTVLYSLIGRKLWRRRRGDAVVGASLRDQNHKQTVKMLAVVVFAFILCWLPFHVGRYLFSKSFEPGSLEIAQISQYCNLVSFVLFYLSAAINPILYNIMSKKYRVAVFRLLGFEPFSQRKLSTLKDESSRAWTESSINT,,6870,10

# — publication PMC5384189 (2017)
